Laboratory results: PMC6999842 (mAbs, 2020)

What was measured:
[1] = target: A33 in human colon and human colon adenocarcinoma tissue sections (Homo sapiens (Human)., UniProt Q99795); experiment: immunostaining of cells or tissue
[2] = target: T1, human A33 transmembrane glycoprotein expressed on stably transfected murine colorectal carcinoma cells (Homo sapiens (Human)., UniProt Q99795); experiment: flow cytometry on cells
[3] = target: T1, human A33 transmembrane glycoprotein …; experiment: immunostaining of cells or tissue

T1 sequence (Q99795 22-319): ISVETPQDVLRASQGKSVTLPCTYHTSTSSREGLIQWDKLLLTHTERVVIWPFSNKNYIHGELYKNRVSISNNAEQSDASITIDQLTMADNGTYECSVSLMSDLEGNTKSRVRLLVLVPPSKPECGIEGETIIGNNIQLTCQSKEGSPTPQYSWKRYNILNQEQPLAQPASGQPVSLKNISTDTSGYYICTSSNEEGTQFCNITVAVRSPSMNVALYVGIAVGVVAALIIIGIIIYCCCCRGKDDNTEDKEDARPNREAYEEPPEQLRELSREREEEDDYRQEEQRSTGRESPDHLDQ
Sequence of A33 in human colon and human colon adenocarcinoma tissue sections (Q99795 22-319): as above

Row | Binder | binding result [1] | binding result [2] | binding result [3]
1 | IgG2a(K), murine anti-A33 antibody K in murine IgG2a format (antibody, V domains shown) VH: EVKLVESGGGLVKPGGSLKLSCAASGFAFSTYDMSWVRQTPEKRLEWVATISSGGSYTYYLDSVKGRFTISRDSARNTLYLQMSSLRSEDTALYYCAPTTVVPFAYWGQGTLVTVSA VL: DIVMTQSQKFMSTSVGDRVSITCKASQNVRTVVAWYQQKPGQSPKTLIYLASNRHTGVPDRFTGSGSGTDFTLTISNVQSEDLADYFCLQHWSYPLTFGSGTKLEVK | binds | binds | –
2 | FITC-labeled IgG2a(K) (antibody, V domains shown) VH: EVKLVESGGGLVKPGGSLKLSCAASGFAFSTYDMSWVRQTPEKRLEWVATISSGGSYTYYLDSVKGRFTISRDSARNTLYLQMSSLRSEDTALYYCAPTTVVPFAYWGQGTLVTVSA VL: DIVMTQSQKFMSTSVGDRVSITCKASQNVRTVVAWYQQKPGQSPKTLIYLASNRHTGVPDRFTGSGSGTDFTLTISNVQSEDLADYFCLQHWSYPLTFGSGTKLEVK | – | – | binds
3 | FITC-labeled IgG2a(MG) (antibody, V domains shown) VH: QVQLQQSGPELVKPGASVKISCKASGYTFSGSWMNWVKQRPGQGLEWIGRIYPGDGETNYNGKFKDKATLTADKSSTTAYMELSSLTSVDSAVYFCARIYGNNVYFDVWGAGTTVTVSS VL: QIVLTQSPAIMSASPGERVTMTCSARSSISFMYWYQQKPGSSPRLLIYDTSNLASGVPVRFSGSGSGTSYSLTISRMEAEDAATYYCQQWSSYPLTFGSGTKLELK | – | – | binds
